This note sets out measurements from paper PMC13044988, “Vaspin identified as a DNA‐binding serpin with functional consequences for protease inhibition”.

The target in one series is T1, antichymotrypsin (ACT) (Homo sapiens, UniProt P01011 24-423).
T1 sequence: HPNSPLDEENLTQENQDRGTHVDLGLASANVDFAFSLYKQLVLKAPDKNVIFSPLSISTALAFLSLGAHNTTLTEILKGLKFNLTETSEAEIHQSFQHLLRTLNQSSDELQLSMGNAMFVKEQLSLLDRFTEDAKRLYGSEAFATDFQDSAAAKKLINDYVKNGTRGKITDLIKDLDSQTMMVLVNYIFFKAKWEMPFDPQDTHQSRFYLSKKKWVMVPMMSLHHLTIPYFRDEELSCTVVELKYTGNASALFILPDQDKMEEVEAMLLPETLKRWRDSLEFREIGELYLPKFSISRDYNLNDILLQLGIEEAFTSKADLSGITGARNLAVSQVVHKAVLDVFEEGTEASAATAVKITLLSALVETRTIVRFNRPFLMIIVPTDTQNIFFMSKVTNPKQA
The series is described as follows: DRaCALA; Buffer 1 (150 mM NaCl), 1 uM protein; DRaCALA: Buffer 2, 20 mM Tris/HCl pH 7.8, 15 mM NaCl, 50 nM labeled ssDNA, 10 min at 20 C; screening also in Buffer 1 (20 mM Tris/HCl pH 7.8, 150 mM NaCl) and Buffer 3 (20 mM Tris/HCl pH 7.8, 15 mM KCl). Conditions: label: 5'-32P.

A further series addresses T2, vaspin WT (Homo sapiens, UniProt Q8IW75 21-414).
T2 sequence: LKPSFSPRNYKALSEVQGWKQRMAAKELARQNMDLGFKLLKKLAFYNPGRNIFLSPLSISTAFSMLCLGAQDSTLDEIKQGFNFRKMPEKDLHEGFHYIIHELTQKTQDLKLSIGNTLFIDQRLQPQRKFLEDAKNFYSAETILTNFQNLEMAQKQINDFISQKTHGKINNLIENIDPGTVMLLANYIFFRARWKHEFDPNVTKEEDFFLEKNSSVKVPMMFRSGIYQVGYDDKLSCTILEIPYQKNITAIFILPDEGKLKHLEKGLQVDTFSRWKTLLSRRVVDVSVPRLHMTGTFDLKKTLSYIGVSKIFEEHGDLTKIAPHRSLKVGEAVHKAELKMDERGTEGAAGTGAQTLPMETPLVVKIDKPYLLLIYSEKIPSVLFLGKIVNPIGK
Kind of series: DRaCALA; Buffer 2; DRaCALA: Buffer 2, 20 mM Tris/HCl pH 7.8, 15 mM NaCl, 50 nM labeled ssDNA, 10 min at 20 C; screening also in Buffer 1 (20 mM Tris/HCl pH 7.8, 150 mM NaCl) and Buffer 3 (20 mM Tris/HCl pH 7.8, 15 mM KCl). Conditions: protein: recombinant; label: 5'-32P.

The target in the next series is KLK7 (kallikrein 7) (Homo sapiens, UniProt P49862 30-253). The series is described as above. Conditions: protein: recombinant; label: 5'-32P.
For series [1], the target named is T3, NHB vaspin (nonheparin-binding) (Homo sapiens, UniProt Q8IW75 21-414, K131A;K188A;R211A;K359A;R363A).
T3 sequence: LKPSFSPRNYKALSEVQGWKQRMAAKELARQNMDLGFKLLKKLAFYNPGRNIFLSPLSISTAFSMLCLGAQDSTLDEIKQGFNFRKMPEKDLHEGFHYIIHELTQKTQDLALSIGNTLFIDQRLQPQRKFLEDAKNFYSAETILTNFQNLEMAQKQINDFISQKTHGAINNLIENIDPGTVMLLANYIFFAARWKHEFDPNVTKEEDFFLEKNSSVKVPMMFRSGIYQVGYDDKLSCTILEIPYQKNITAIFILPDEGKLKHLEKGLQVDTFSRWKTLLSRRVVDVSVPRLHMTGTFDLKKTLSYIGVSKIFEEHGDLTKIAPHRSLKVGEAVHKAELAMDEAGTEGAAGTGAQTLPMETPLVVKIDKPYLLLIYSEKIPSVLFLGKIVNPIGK
The description is as above. The note with it: protein: recombinant; label: 5'-32P.

KLK7 (kallikrein 7), sequence (P49862 30-253): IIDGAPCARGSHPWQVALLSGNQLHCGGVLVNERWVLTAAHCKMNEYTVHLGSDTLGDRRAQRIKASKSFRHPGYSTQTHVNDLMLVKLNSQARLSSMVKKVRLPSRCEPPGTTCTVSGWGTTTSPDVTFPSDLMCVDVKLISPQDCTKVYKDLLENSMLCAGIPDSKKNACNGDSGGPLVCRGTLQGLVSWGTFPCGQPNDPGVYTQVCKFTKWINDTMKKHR

B1: 60 base ssDNA (ssDNA)
DNA: GACGGATCGGGAGATCTCCCGATCCCCTATGGTGCACTCTCAGTACAATCTGCTCTGATG
Broadly, the Kd is the equilibrium constant for the complex coming apart. As for B1, the binding result with antichymotrypsin (ACT) is recorded as “no binding”. Moreover, the Kd with vaspin WT turned out to be 117 nM; with KLK7 (kallikrein 7), 815 nM; in series [1] it was 188 nM.

With GACGGATCGGGAGATCTCCC (ssDNA) [20 base ssDNA], the Kd in the series with vaspin WT is 59 nM; in the series with KLK7 (kallikrein 7), 2070 nM; in series [1] it was 269 nM.

B2: 120 base ssDNA (ssDNA)
DNA: GACGGATCGGGAGATCTCCCGATCCCCTATGGTGCACTCTCAGTACAATCTGCTCTGATGCCGCATAGTTAAGCCAGTATCTGCTCCCTGCTTGTGTGTTGGAGGTCGCTGAGTAGTGCG
For B2, the dissociation constant Kd with vaspin WT was found to be 128 nM; with KLK7 (kallikrein 7) it was 1070 nM; in series [1], 178 nM.
